Experimental findings from the supplement of paper PMC11246515 are described below.

± gives the standard deviation of the averaged measurements.

This data set is described as follows: total protein half-life in vivo (active degradation + dilution); higher = more stable protein.
Setting [1] is: E. coli NCM3722 delta-clpP delta-lon delta-hslV, growth: N-lim chemostat, doubling time 6 h.
[2] abbreviates: E. coli NCM3722 delta-clpP, growth: N-lim chemostat, doubling time 6 h.
Setting [3] is: E. coli NCM3722 delta-hslV, growth: N-lim chemostat, doubling time 6 h.
[4] abbreviates: E. coli NCM3722 delta-smpB, growth: N-lim chemostat, doubling time 6 h.
Where [5] appears, read: wild type E. coli NCM3722, growth: C-lim chemostat, doubling time 6 h.
The mark [6] stands for this setting: wild type E. coli NCM3722, growth: C-lim chemostat, doubling time 12 h.
The mark [7] stands for this setting: wild type E. coli NCM3722, growth: N-lim chemostat, doubling time 6 h.
Where [8] appears, read: wild type E. coli NCM3722, growth: N-lim chemostat, doubling time 12 h.
Setting [9] is: wild type E. coli NCM3722, growth: P-lim chemostat, doubling time 6 h.
The mark [10] stands for this setting: E. coli NCM3722 delta-lon, growth: N-lim chemostat, doubling time 6 h.
Where [11] appears, read: wild type E. coli NCM3722, growth: C-lim chemostat, doubling time 3 h.
The mark [12] stands for this setting: wild type E. coli NCM3722, growth: P-lim chemostat, doubling time 12 h.

As to “MFKEIFTRLIRHLPSRLVHRDPLPGAQQTVNTVVPPSLSAHCLKMAVMPEEELWKTFDTHPEGLNQAEVESAREQHGENKLPAQQPSPWWVHLWVCYRNPFNILLTILGAISYATEDLFAAGVIALMVAISTLLNFIQEARSTKAADALKAMVSNTATVLRVINDKGENGWLEIPIDQLVPGDIIKLAAGDMIPADLRILQARDLFVAQASLTGESLPVEKAATTRQPEHSNPLECDTLCFMGTTVVSGTAQAMVIATGANTWFGQLAGRVSEQESEPNAFQQGISRVSMLLIRFMLVMAPVVLLINGYTKGDWWEAALFALSVAVGLTPEMLPMIVTSTLARGAVKLSKQKVIVKHLDAIQNFGAMDILCTDKTGTLTQDKIVLENHTDISGKTSERVLHSAWLNSHYQTGLKNLLDTAVLEGTDEESARSLASRWQKIDEIPFDFERRRMSVVVAENTEHHQLVCKGALQEILNVCSQVRHNGEIVPLDDIMLRKIKRVTDTLNRQGLRVVAVATKYLPAREGDYQRADESDLILEGYIAFLDPPKETTAPALKALKASGITVKILTGDSELVAAKVCHEVGLDAGEVVIGSDIETLSDDELANLAQRTTLFARLTPMHKERIVTLLKREGHVVGFMGDGINDAPALRAADIGISVDGAVDIAREAADIILLEKSLMVLEEGVIEGRRTFANMLKYIKMTASSNFGNVFSVLVASAFLPFLPMLPLHLLIQNLLYDVSQVAIPFDNVDDEQIQKPQRWNPADLGRFMIFFGPISSIFDILTFCLMWWVFHANTPETQTLFQSGWFVVGLLSQTLIVHMIRTRRVPFIQSCASWPLMIMTVIVMIVGIALPFSPLASYLQLQALPLSYFPWLVAILAGYMTLTQLVKGFYSRRYGWQ [P0ABB8]”, the “total protein half-life in vivo” value reads like this: under setting [1], 6.31 h; under setting [2], 6.68 ± 0.68 h; under setting [3], 6.44 ± 0.53 h; under setting [4], 5.89 ± 0.47 h; under setting [5], 6.91 ± 0.4 h; under setting [6], 14.8 ± 0.69 h. Besides, the “total protein half-life in vivo” value runs as follows: under setting [7], 6.72 ± 0.55 h; under setting [8], 14.4 ± 1.3 h; under setting [9], 6.71 ± 0.3 h.
Regarding “MRTQWPSPAKLNLFLYITGQRADGYHTLQTLFQFLDYGDTISIELRDDGDIRLLTPVEGVEHEDNLIVRAARLLMKTAADSGRLPTGSGANISIDKRLPMGGGLGGGSSNAATVLVALNHLWQCGLSMDELAEMGLTLGADVPVFVRGHAAFAEGVGEILTPVDPPEKWYLVAHPGVSIPTPVIFKDPELPRNTPKRSIETLLKCEFSNDCEVIARKRFREVDAVLSWLLEYAPSRLTGTGACVFAEFDTESEARQVLEQAPEWLNGFVAKGANLSPLHRAML”, the “total protein half-life in vivo” value under setting [2] amounted to 4.11 ± 0.64 h; the “total protein half-life in vivo” value under setting [3] was 4.05 ± 0.64 h; the “total protein half-life in vivo” value under setting [10] came to 4.25 ± 0.41 h; the “total protein half-life in vivo” value under setting [4] came out at 4.04 ± 0.42 h; the “total protein half-life in vivo” value under setting [11] stood at 2.95 ± 0.33 h; the “total protein half-life in vivo” value under setting [6] came to 10.5 ± 0.63 h. Moreover, the “total protein half-life in vivo” value is, setting by setting: under setting [7], 4.43 ± 0.23 h; under setting [8], 6.789 ± 0.062 h; under setting [9], 5.31 ± 0.33 h; under setting [12], 10.47 ± 0.049 h.
As for “MTRLASRFGAANLIRRDRPLTREELFRVVPSVFSEDKHESRSERYTYIPTISLLDSLQREGFQPFFACQTRVRDPGRREHTKHMLRLRREGQITGKQVPEIILLNSHDGTSSYQMLPGLFRAVCQNGLVCGESFGEVRVPHKGDVVSQVIEGAYEVLGIFDRVEEKRDAMQSLLLPPPAQQALAKAALTYRFGEDHQPVTESQILSPRRWQDESNDLWTTYQRIQENLIKGGLSGRNAKGGRSHTRAVRGIDGDVKLNRALWVMAEALLTQLQ”, the “total protein half-life in vivo” value was 5.7 ± 0.74 h under setting [1], 3.1 h under setting [5], 4.67 h under setting [7] and 3.42 h under setting [9].
On to “MSITLSDSAAARVNTFLANRGKGFGLRLGVRTSGCSGMAYVLEFVDEPTPEDIVFEDKGVKVVVDGKSLQFLDGTQLDFVKEGLNEGFKFTNPNVKDECGCGESFHV [P0AAC8]”, for which the “total protein half-life in vivo” value under setting [1] came out at 3.72 ± 0.52 h; the “total protein half-life in vivo” value under setting [2] worked out at 2.47 ± 1.5 h; the “total protein half-life in vivo” value under setting [3] is 0.964 ± 0.11 h; the “total protein half-life in vivo” value under setting [10] came to 2.06 ± 0.1 h; the “total protein half-life in vivo” value under setting [4] was determined as 0.889 ± 0.077 h; the “total protein half-life in vivo” value under setting [11] was determined as 1.2 ± 0.086 h. Besides, the “total protein half-life in vivo” value reads like this: under setting [5], 1.62 ± 0.07 h; under setting [6], 2.08 ± 0.36 h; under setting [7], 1.14 ± 0.11 h; under setting [8], 1.26 ± 0.022 h; under setting [9], 1.36 ± 0.36 h; under setting [12], 2.42 ± 0.75 h.
“MLAQLTISNFAIVRELEIDFHSGMTVITGETGAGKSIAIDALGLCLGGRAEADMVRTGAARADLCARFSLKDTPAALRWLEENQLEDGHECLLRRVISSDGRSRGFINGTAVPLSQLRELGQLLIQIHGQHAHQLLTKPEHQKFLLDGYANETSLLQEMTARYQLWHQSCRDLAHHQQLSQERAARAELLQYQLKELNEFNPQPGEFEQIDEEYKRLANSGQLLTTSQNALALMADGEDANLQSQLYTAKQLVSELIGMDSKLSGVLDMLEEATIQIAEASDELRHYCDRLDLDPNRLFELEQRISKQISLARKHHVSPEALPQYYQSLLEEQQQLDDQADSQETLALAVTKHHQQALEIARALHQQRQQYAEELAQLITDSMHALSMPHGQFTIDVKFDEHHLGADGADRIEFRVTTNPGQPMQPIAKVASGGELSRIALAIQVITARKMETPALIFDEVDVGISGPTAAVVGKLLRQLGESTQVMCVTHLPQVAGCGHQHYFVSKETDGAMTETHMQSLNKKARLQELARLLGGSEVTRNTLANAKELLAA”: the “total protein half-life in vivo” value runs as follows: under setting [1], 5.03 ± 0.093 h; under setting [2], 3.53 ± 0.12 h; under setting [12], 2.48 h.
Consider “MNNNDLFQASRRRFLAQLGGLTVAGMLGPSLLTPRRATAAQAATDAVISKEGILTGSHWGAIRATVKDGRFVAAKPFELDKYPSKMIAGLPDHVHNAARIRYPMVRVDWLRKRHLSDTSQRGDNRFVRVSWDEALDMFYEELERVQKTHGPSALLTASGWQSTGMFHNASGMLAKAIALHGNSVGTGGDYSTGAAQVILPRVVGSMEVYEQQTSWPLVLQNSKTIVLWGSDLLKNQQANWWCPDHDVYEYYAQLKAKVAAGEIEVISIDPVVTSTHEYLGREHVKHIAVNPQTDVPLQLALAHTLYSENLYDKNFLANYCVGFEQFLPYLLGEKDGQPKDAAWAEKLTGIDAETIRGLARQMAANRTQIIAGWCVQRMQHGEQWAWMIVVLAAMLGQIGLPGGGFGFGWHYNGAGTPGRKGVILSGFSGSTSIPPVHDNSDYKGYSSTIPIARFIDAILEPGKVINWNGKSVKLPPLKMCIFAGTNPFHRHQQINRIIEGLRKLETVIAIDNQWTSTCRFADIVLPATTQFERNDLDQYGNHSNRGIIAMKQVVPPQFEARNDFDIFRELCRRFNREEAFTEGLDEMGWLKRIWQEGVQQGKGRGVHLPAFDDFWNNKEYVEFDHPQMFVRHQAFREDPDLEPLGTPSGLIEIYSKTIADMNYDDCQGHPMWFEKIERSHGGPGSQKYPLHLQSVHPDFRLHSQLCESETLRQQYTVAGKEPVFINPQDASARGIRNGDVVRVFNARGQVLAGAVVSDRYAPGVARIHEGAWYDPDKGGEPGALCKYGNPNVLTIDIGTSQLAQATSAHTTLVEIEKYNGTVEQVTAFNGPVEMVAQCEYVPASQVKS”, for which the “total protein half-life in vivo” value by setting is: under setting [10], 7.84 h; under setting [4], 5.54 h; under setting [11], 3.3 ± 0.074 h; under setting [5], 4.64 ± 2.7 h; under setting [6], 13.2 ± 1.9 h; under setting [7], 7.02 ± 0.15 h. Also, the “total protein half-life in vivo” value by setting is: under setting [8], 14 ± 1.4 h; under setting [9], 6.85 ± 0.67 h; under setting [12], 12.6 ± 0.63 h.
As for “MAVQKNVIKGILAGTFALMLSGCVTVPDAIKGSSPTPQQDLVRVMSAPQLYVGQEARFGGKVVAVQNQQGKTRLEIATVPLDSGARPTLGEPSRGRIYADVNGFLDPVDFRGQLVTVVGPITGAVDGKIGNTPYKFMVMQVTGYKRWHLTQQVIMPPQPIDPWFYGGRGWPYGYGGWGWYNPGPARVQTVVTE [P0AA91]”, the “total protein half-life in vivo” value runs as follows: under setting [1], 6.07 ± 0.61 h; under setting [2], 6.3 ± 0.12 h; under setting [3], 6.13 ± 0.12 h; under setting [10], 6.532 ± 0.04 h; under setting [4], 5.76 ± 0.071 h; under setting [11], 3.01 ± 0.17 h. For the same sequence, the “total protein half-life in vivo” value runs as follows: under setting [5], 6.05 ± 0.21 h; under setting [6], 10.7 ± 2.4 h; under setting [7], 6.52 ± 0.45 h; under setting [8], 13.7 ± 1.7 h; under setting [9], 6.13 ± 0.1 h.
